Data on four molecules can be found in article PMC12862363, “AURKB-driven dissolution of CIZ1–RNA assemblies from the inactive X chromosome in mitosis” (Nucleic Acids Research, 2026).

For series [1], the system named is C179WT (hCIZ1 C-terminal fragment) (Homo sapiens). The experiment in a line: EMSA. Particulars: 0.66 nM RNA; yeast tRNA 0.1 mg/ml; 10 mM Tris-HCl pH 7, 30 mM NaCl, 2.5 mM MgCl2, 0.1% IGEPAL CA-630, 0.1 mg/ml yeast tRNA, 1.5% RNaseOUT, 0.2 mM EDTA, 0.2 mM DTT, 30 C 20 min; 0.8% agarose/TBE ….
The target in series [2] is human CIZ1-C179Δtail (human) (UniProt Q9ULV3). The experiment in a line: SEC-MALS; SEC-MALLS; 100 µl of >1 mg/ml purified protein, Superdex S200 10/300 GL, cleavage buffer (50 mM Tris-HCl pH 7, 150 mM NaCl, 1 mM EDTA, 1 mM DTT), 0.5 ml/min, room temperature (20 ± 2°C).
For series [3], the target named is murine CIZ1 fragment C181 (mouse) (UniProt Q8VEH2). The series is described as above.
Series [4] deals with the molecule itself. The description is as above.

As for Xist repeat E RNA probe, in series [1], the binding signal (% probe shifted at 5 µM protein) amounted to 99.
In turn, “human CIZ1-C179Δtail (from UniProt Q9ULV3-1 720-860) (domain or fragment)” returned a stoichiometry N in series [2] of 2.
“murine CIZ1 fragment C181 (from UniProt Q8VEH2 665-845) (domain or fragment)” yielded a stoichiometry N in series [3] of 2.

B1: human CIZ1-C179 (domain or fragment, UniProt Q9ULV3-1 720-898, looked up)
chain: EKEIAGQDEDHFITVDAVGCFEGDEEEEEDDEDEEEIEVEEELCKQVRSRDISREEWKGSETYSPNTAYGVDFLVPVMGYICRICHKFYHSNSGAQLSHCKSLGHFENLQKYKAAKNPSPTTRPVSRRCAINARNALTALFTSSGRPPSQPNTQDKTPSKVTARPSQPPLPRRSTRLKT
notes: the terminal residue is printed as Thr 898; also called hC179; C179WT; source: E. coli BL21 RP CodonPlus, purified (GSTrap, on-column PreScission cleavage, Superdex 200); not shown: GST, N-terminal, cleaved
On to B1, for which, in series [4], the “stoichiometry N” value is 2.

In general, stoichiometry N refers to a count of units in the complex or per binding partner.
